Results reported in patent US20110263454A1, “Methods of Identifying Functional Characteristics of Promoters, Transcription Modifying Proteins and Transcription Modulating Agents” (Salk Institute for Biological Studies, priority 2008, published 2011).

B1: hMR: Mineralocorticoid Receptor (NR3C2, MR), cDNA driver (protein, UniProt P08235 1-984, looked up)
Mineralocorticoid receptor: METKGYHSLPEGLDMERRWGQVSQAVERSSLGPTERTDENNYMEIVNVSCVSGAIPNNSTQGSSKEKQELLPCLQQDNNRPGILTSDIKTELESKELSATVAESMGLYMDSVRDADYSYEQQNQQGSMSPAKIYQNVEQLVKFYKGNGHRPSTLSCVNTPLRSFMSDSGSSVNGGVMRAVVKSPIMCHEKSPSVCSPLNMTSSVCSPAGINSVSSTTASFGSFPVHSPITQGTPLTCSPNVENRGSRSHSPAHASNVGSPLSSPLSSMKSSISSPPSHCSVKSPVSSPNNVTLRSSVSSPANINNSRCSVSSPSNTNNRSTLSSPAASTVGSICSPVNNAFSYTASGTSAGSSTLRDVVPSPDTQEKGAQEVPFPKTEEVESAISNGVTGQLNIVQYIKPEPDGAFSSSCLGGNSKINSDSSFSVPIKQESTKHSCSGTSFKGNPTVNPFPFMDGSYFSFMDDKDYYSLSGILGPPVPGFDGNCEGSGFPVGIKQEPDDGSYYPEASIPSSAIVGVNSGGQSFHYRIGAQGTISLSRSARDQSFQHLSSFPPVNTLVESWKSHGDLSSRRSDGYPVLEYIPENVSSSTLRSVSTGSSRPSKICLVCGDEASGCHYGVVTCGSCKVFFKRAVEGQHNYLCAGRNDCIIDKIRRKNCPACRLQKCLQAGMNLGARKSKKLGKLKGIHEEQPQQQQPPPPPPPPQSPEEGTTYIAPAKEPSVNTALVPQLSTISRALTPSPVMVLENIEPEIVYAGYDSSKPDTAENLLSTLNRLAGKQMIQVVKWAKVLPGFKNLPLEDQITLIQYSWMCLSSFALSWRSYKHTNSQFLYFAPDLVFNEEKMHQSAMYELCQGMHQISLQFVRLQLTFEEYTIMKVLLLLSTIPKDGLKSQAAFEEMRTNYIKELRKMVTKCPNNSGQSWQRFYQLTKLLDSMHDLVSDLLEFCFYTFRESHALKVEFPAMLVEIISDQLPKVESGNAKPLYFHRK
B2: CTF3: COUP-TF3 (NR2F6), cDNA driver (protein, UniProt P10588 1-404, looked up)
Nuclear receptor subfamily 2 …: MAMVTGGWGGPGGDTNGVDKAGGYPRAAEDDSASPPGAASDAEPGDEERPGLQVDCVVCGDKSSGKHYGVFTCEGCKSFFKRSIRRNLSYTCRSNRDCQIDQHHRNQCQYCRLKKCFRVGMRKEAVQRGRIPHSLPGAVAASSGSPPGSALAAVASGGDLFPGQPVSELIAQLLRAEPYPAAAGRFGAGGGAAGAVLGIDNVCELAARLLFSTVEWARHAPFFPELPVADQVALLRLSWSELFVLNAAQAALPLHTAPLLAAAGLHAAPMAAERAVAFMDQVRAFQEQVDKLGRLQVDSAEYGCLKAIALFTPDACGLSDPAHVESLQEKAQVALTEYVRAQYPSQPQRFGRLLLRLPALRAVPASLISQLFFMRLVGKTPIETLIRDMLLSGSTFNWPYGSGQ
B3: PR: Progesterone Receptor (NR3C3), cDNA driver (protein, UniProt P06401 1-933, looked up)
Progesterone receptor: MTELKAKGPRAPHVAGGPPSPEVGSPLLCRPAAGPFPGSQTSDTLPEVSAIPISLDGLLFPRPCQGQDPSDEKTQDQQSLSDVEGAYSRAEATRGAGGSSSSPPEKDSGLLDSVLDTLLAPSGPGQSQPSPPACEVTSSWCLFGPELPEDPPAAPATQRVLSPLMSRSGCKVGDSSGTAAAHKVLPRGLSPARQLLLPASESPHWSGAPVKPSPQAAAVEVEEEDGSESEESAGPLLKGKPRALGGAAAGGGAAAVPPGAAAGGVALVPKEDSRFSAPRVALVEQDAPMAPGRSPLATTVMDFIHVPILPLNHALLAARTRQLLEDESYDGGAGAASAFAPPRSSPCASSTPVAVGDFPDCAYPPDAEPKDDAYPLYSDFQPPALKIKEEEEGAEASARSPRSYLVAGANPAAFPDFPLGPPPPLPPRATPSRPGEAAVTAAPASASVSSASSSGSTLECILYKAEGAPPQQGPFAPPPCKAPGASGCLLPRDGLPSTSASAAAAGAAPALYPALGLNGLPQLGYQAAVLKEGLPQVYPPYLNYLRPDSEASQSPQYSFESLPQKICLICGDEASGCHYGVLTCGSCKVFFKRAMEGQHNYLCAGRNDCIVDKIRRKNCPACRLRKCCQAGMVLGGRKFKKFNKVRVVRALDAVALPQPVGVPNESQALSQRFTFSPGQDIQLIPPLINLLMSIEPDVIYAGHDNTKPDTSSSLLTSLNQLGERQLLSVVKWSKSLPGFRNLHIDDQITLIQYSWMSLMVFGLGWRSYKHVSGQMLYFAPDLILNEQRMKESSFYSLCLTMWQIPQEFVKLQVSQEEFLCMKVLLLLNTIPLEGLRSQTQFEEMRSSYIRELIKAIGLRQKGVVSSSQRFYQLTKLLDNLHDLVKQLHLYCLNTFIQSRALSVEFPEMMSEVIAAQLPKILAGMVKPLLFHKK
B4: NR4a2: NR4a2 (NR4A2; NURR1), nuclear hormone receptor cDNA driver (protein, UniProt P43354 1-598, looked up)
Nuclear receptor subfamily 4 …: MPCVQAQYGSSPQGASPASQSYSYHSSGEYSSDFLTPEFVKFSMDLTNTEITATTSLPSFSTFMDNYSTGYDVKPPCLYQMPLSGQQSSIKVEDIQMHNYQQHSHLPPQSEEMMPHSGSVYYKPSSPPTPTTPGFQVQHSPMWDDPGSLHNFHQNYVATTHMIEQRKTPVSRLSLFSFKQSPPGTPVSSCQMRFDGPLHVPMNPEPAGSHHVVDGQTFAVPNPIRKPASMGFPGLQIGHASQLLDTQVPSPPSRGSPSNEGLCAVCGDNAACQHYGVRTCEGCKGFFKRTVQKNAKYVCLANKNCPVDKRRRNRCQYCRFQKCLAVGMVKEVVRTDSLKGRRGRLPSKPKSPQEPSPPSPPVSLISALVRAHVDSNPAMTSLDYSRFQANPDYQMSGDDTQHIQQFYDLLTGSMEIIRGWAEKIPGFADLPKADQDLLFESAFLELFVLRLAYRSNPVEGKLIFCNGVVLHRLQCVRGFGEWIDSIVEFSSNLQNMNIDISAFSCIAALAMVTERHGLKEPKRVEELQNKIVNCLKDHVTFNNGGLNRPNYLSKLLGKLPELRTLCTQGLQRIFYLKLEDLVPPPAIIDKLFLDTLPF
B5: CTF2: COUP-TF2 (NR2F2), cDNA driver (protein, UniProt P24468 1-414, looked up)
COUP transcription factor 2: MAMVVSTWRDPQDEVPGSQGSQASQAPPVPGPPPGAPHTPQTPGQGGPASTPAQTAAGGQGGPGGPGSDKQQQQQHIECVVCGDKSSGKHYGQFTCEGCKSFFKRSVRRNLSYTCRANRNCPIDQHHRNQCQYCRLKKCLKVGMRREAVQRGRMPPTQPTHGQFALTNGDPLNCHSYLSGYISLLLRAEPYPTSRFGSQCMQPNNIMGIENICELAARMLFSAVEWARNIPFFPDLQITDQVALLRLTWSELFVLNAAQCSMPLHVAPLLAAAGLHASPMSADRVVAFMDHIRIFQEQVEKLKALHVDSAEYSCLKAIVLFTSDACGLSDVAHVESLQEKSQCALEEYVRSQYPNQPTRFGKLLLRLPSLRTVSSSVIEQLFFVRLVGKTPIETLIRDMLLSGSSFNWPYMAIQ

These molecules were tested on hPPARg2 promoter (assay: NHR-promoter luciferase screen, hPPARg2 promoter). Conditions: PPARG2 promoter; hormone receptor with or without its ligand.
Format: cell-based, human
In short: (§1)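 CV-1 cells were co-transfected with 50 ng NHR (homodimer or NHR/RXR heterodimer), 100 ng promoter-luciferase construct and 50 ng LacZ. Luciferase was normalized to LacZ and to a no-NHR/no-ligand control.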

| Molecule | Luc. act., normalized to lacZ |
| --- | --- |
| B1 | 1.0 |
| B2 | 1.7 |
| B3 | 1.8 |
| B4 | 1.4 |
| B5 | 1.5 |

Same assay, conditions: PPARG2 promoter; hormone receptor with or without its ligand; relative to control

| Molecule | Normalized Luc. act., normalized to control |
| --- | --- |
| B1 | 0.5 |
| B2 | 0.8 |
| B3 | 0.9 |
| B4 | 0.7 |
| B5 | 0.8 |

Same assay, conditions: Table 6d; luciferase activity relative to control (control = 1.00)

| Molecule | Results of assays of transcription factor (+/- ligand) with hPPARg2 |
| --- | --- |
| B1 | 0.51 |
| B2 | 0.85 |
| B3 | 0.88 |
| B4 | 0.68 |
| B5 | 0.76 |

Each molecule was assayed on mLeptin promoter (assay: NHR-promoter luciferase screen, mLeptin promoter). Conditions: Table 7; mLeptin.
Format: cell-based, mouse
In short: as §1

| Molecule | Luc. act., normalized to lacZ | Normalized Luc. act., normalized to control |
| --- | --- | --- |
| B1 | 1.7 | 0.6 |
| B2 | 2.7 | 0.9 |
| B3 | 2.2 | 0.8 |
| B4 | 2.1 | 0.7 |
| B5 | 3.8 | 1.3 |

Same assay, conditions: Table 6d; luciferase activity relative to control (control = 1.00)

| Molecule | Results of assays of transcription factor (+/- ligand) with mLeptin |
| --- | --- |
| B1 | 0.57 |
| B2 | 0.92 |
| B3 | 0.76 |
| B4 | 0.71 |
| B5 | 1.31 |

The molecules below were run on hMyoD promoter (assay: NHR-promoter luciferase screen, hMyoD promoter). Conditions: MyoD promoter reporter; co-transfected HR, without or with its ligand.
Format: cell-based, human
In short: as §1

| Molecule | Luc. act., normalized to lacZ |
| --- | --- |
| B1 | 37.1 |
| B2 | 35.6 |
| B3 | 70.4 |
| B4 | 51.9 |
| B5 | 60.9 |

Same assay, conditions: MyoD promoter reporter; co-transfected HR, without or with its ligand; relative to control

| Molecule | Normalized Luc. act., normalized to control |
| --- | --- |
| B1 | 0.6 |
| B2 | 0.6 |
| B3 | 1.1 |
| B4 | 0.8 |
| B5 | 1.0 |

Same assay, conditions: hMyoD promoter-luciferase, CV-1 cells, NHR +/- ligand, control = 1.00

| Molecule | luciferase activity normalized to lacZ activity and to a control, hMyoD |
| --- | --- |
| B1 | 0.59 |
| B2 | 0.56 |
| B3 | 1.11 |
| B4 | 0.82 |
| B5 | 0.96 |

What follows are molecules tested on hMDR1 promoter (assay: NHR-promoter luciferase screen, hMDR1 promoter). Conditions: MDR1 promoter; HR/ligand component.
Format: cell-based, human
In short: as §1

| Molecule | Luc. act., normalized to lacZ | Normalized Luc. act., normalized to control |
| --- | --- | --- |
| B1 | 0.1 | 0.3 |
| B2 | 0.4 | 1.4 |
| B3 | 0.4 | 1.3 |
| B4 | 0.2 | 0.7 |
| B5 | 0.3 | 1.0 |

Same assay, conditions: transcription factor +/- ligand; control = 1.00

| Molecule | hMDR1 promoter reporter activity |
| --- | --- |
| B1 | 0.34 |
| B2 | 1.36 |
| B3 | 1.35 |
| B4 | 0.74 |
| B5 | 1.01 |

These molecules were tested on mGhrelin promoter (assay: NHR-promoter luciferase screen, mGhrelin promoter). Conditions: Table 8; mGhrelin.
Format: cell-based, mouse
In short: as §1

| Molecule | Luc. act., normalized to lacZ | Normalized Luc. act., normalized to control |
| --- | --- | --- |
| B1 | 49.7 | 1.0 |
| B2 | 68.4 | 1.3 |
| B3 | 53.6 | 1.0 |
| B4 | 31.5 | 0.6 |
| B5 | 173.3 | 3.3 |

Same assay, conditions: Table 6d; luciferase activity relative to control (control = 1.00)

| Molecule | Results of assays of transcription factor (+/- ligand) with mGhrelin |
| --- | --- |
| B1 | 0.95 |
| B2 | 1.31 |
| B3 | 1.03 |
| B4 | 0.60 |
| B5 | 3.32 |

These molecules were tested on hG6PD promoter (assay: NHR-promoter luciferase screen, hG6PD promoter). Conditions: G6PD promoter reporter; co-transfected HR, without or with its ligand.
Format: cell-based, human
In short: as §1

| Molecule | Luc. act., normalized to lacZ |
| --- | --- |
| B1 | 35.2 |
| B2 | 32.5 |
| B3 | 45.4 |
| B4 | 41.1 |
| B5 | 43.9 |

Same assay, conditions: G6PD promoter reporter; co-transfected HR, without or with its ligand; relative to control

| Molecule | Normalized Luc. act., normalized to control |
| --- | --- |
| B1 | 0.9 |
| B2 | 0.9 |
| B3 | 1.2 |
| B4 | 1.1 |
| B5 | 1.2 |

Same assay, conditions: hG6PD promoter-luciferase, CV-1 cells, NHR +/- ligand, control = 1.00

| Molecule | luciferase activity normalized to lacZ activity and to a control, hG6PD |
| --- | --- |
| B1 | 0.94 |
| B2 | 0.87 |
| B3 | 1.22 |
| B4 | 1.10 |
| B5 | 1.17 |
